According to patent publication US20200063132A1:

Molecular target: human Mannose 6-Phosphate Receptor (M6PR, also known as IGF2R), endogenous on HUVEC and hCMEC/D3 cells (human) (UniProt P11717)
Experiment: cell-based or functional assay

human Mannose 6-Phosphate Receptor (M6PR, also known as IGF2R), endogenous on HUVEC and hCMEC/D3 cells (human), sequence (P11717 41-2491): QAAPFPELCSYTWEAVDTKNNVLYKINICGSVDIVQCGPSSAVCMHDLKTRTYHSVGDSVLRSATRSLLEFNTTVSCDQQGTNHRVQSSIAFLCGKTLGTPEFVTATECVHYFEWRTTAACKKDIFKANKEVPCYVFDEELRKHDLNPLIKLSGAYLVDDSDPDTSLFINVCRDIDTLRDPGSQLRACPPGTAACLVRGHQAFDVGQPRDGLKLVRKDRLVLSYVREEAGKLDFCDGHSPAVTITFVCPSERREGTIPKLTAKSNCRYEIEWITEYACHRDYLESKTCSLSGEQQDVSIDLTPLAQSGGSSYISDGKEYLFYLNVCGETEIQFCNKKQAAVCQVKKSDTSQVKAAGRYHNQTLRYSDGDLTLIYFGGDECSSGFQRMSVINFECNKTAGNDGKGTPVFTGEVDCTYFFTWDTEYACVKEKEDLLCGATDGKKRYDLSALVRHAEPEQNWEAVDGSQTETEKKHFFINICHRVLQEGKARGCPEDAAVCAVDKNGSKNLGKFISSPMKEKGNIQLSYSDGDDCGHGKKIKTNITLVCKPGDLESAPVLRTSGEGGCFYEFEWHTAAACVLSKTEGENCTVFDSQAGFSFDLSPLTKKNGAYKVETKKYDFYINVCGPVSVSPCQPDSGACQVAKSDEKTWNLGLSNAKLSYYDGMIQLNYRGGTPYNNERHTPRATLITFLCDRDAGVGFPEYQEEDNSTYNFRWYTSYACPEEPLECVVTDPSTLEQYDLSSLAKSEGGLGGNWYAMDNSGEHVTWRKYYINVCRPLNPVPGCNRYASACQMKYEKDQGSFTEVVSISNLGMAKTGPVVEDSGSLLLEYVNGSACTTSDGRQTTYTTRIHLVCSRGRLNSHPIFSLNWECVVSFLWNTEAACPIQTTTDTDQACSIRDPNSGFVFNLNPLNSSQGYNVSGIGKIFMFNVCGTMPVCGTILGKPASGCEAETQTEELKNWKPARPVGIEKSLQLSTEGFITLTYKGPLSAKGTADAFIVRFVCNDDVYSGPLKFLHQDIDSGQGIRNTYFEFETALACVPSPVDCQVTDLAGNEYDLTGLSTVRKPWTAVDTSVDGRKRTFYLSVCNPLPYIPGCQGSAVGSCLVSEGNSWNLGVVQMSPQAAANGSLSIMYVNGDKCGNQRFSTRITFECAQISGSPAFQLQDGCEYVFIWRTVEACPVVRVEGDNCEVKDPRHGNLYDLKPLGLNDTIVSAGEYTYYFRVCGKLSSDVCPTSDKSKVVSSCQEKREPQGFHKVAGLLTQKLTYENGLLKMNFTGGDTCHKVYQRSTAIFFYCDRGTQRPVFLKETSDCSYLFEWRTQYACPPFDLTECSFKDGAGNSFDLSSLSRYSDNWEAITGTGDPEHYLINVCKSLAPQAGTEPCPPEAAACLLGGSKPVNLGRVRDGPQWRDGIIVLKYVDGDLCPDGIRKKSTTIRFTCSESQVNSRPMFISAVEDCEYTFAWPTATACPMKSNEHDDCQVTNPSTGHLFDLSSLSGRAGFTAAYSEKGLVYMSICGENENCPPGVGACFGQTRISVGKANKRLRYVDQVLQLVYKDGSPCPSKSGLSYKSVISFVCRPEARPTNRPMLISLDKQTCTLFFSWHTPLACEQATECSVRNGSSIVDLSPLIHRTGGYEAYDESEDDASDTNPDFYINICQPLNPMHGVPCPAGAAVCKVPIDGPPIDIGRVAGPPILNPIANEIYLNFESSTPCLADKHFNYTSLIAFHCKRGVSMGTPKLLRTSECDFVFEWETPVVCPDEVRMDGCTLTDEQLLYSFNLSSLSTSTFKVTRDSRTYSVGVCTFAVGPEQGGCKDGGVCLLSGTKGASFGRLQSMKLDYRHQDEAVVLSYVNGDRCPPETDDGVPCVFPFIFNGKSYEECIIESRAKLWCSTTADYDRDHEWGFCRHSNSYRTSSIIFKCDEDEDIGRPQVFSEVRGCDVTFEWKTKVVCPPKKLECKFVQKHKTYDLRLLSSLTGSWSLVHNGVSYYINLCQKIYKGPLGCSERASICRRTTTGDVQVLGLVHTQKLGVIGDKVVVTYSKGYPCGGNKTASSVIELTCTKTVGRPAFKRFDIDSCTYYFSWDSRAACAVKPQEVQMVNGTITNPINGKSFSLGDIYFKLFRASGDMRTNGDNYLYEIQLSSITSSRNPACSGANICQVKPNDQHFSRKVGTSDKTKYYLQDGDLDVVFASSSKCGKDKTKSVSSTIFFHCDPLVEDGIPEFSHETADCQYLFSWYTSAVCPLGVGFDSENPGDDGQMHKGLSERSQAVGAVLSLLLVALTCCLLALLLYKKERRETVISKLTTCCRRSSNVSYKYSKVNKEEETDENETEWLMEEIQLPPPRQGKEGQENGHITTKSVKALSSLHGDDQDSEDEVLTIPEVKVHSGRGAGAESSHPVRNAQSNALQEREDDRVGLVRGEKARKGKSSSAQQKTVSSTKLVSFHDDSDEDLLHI

## IDUA-myc fusion protein (human α-L-iduronidase with myc tag, from conditioned medium of HEK 293-based cells stably overexpressing human IDUA cDNA) (from UniProt P35475 28-653) (enzyme)
  IC50 of the M6P inhibitor (mannose 6-phosphate, a small molecule) on uptake of IDUA-myc by HUVEC, 1 h, intracellular IDUA activity: 348 µM
  IC50 of the M6P inhibitor (mannose 6-phosphate, a small molecule) on uptake of IDUA-myc by hCMEC/D3 cells, 1 h, intracellular IDUA activity: 57.2 µM
